Measurements: the supplement of paper PMC7877785
± gives the uncertainty stated by the source.

Assay: self-splicing fitness, log relative to wild type (ln ratio); higher = more splicing; Tetrahymena group I intron in knt gene, E. coli kanamycin selection, DiMSum; sequences stand for … in CUCUCU…GGAGGGAAAAGUUAUCAGGCAUGCACCUGGUAGCUAGUCUUUAAACCAAUAGAUUGCAUCGGUUUAAAAGGCAAGACCGUCAAAUUGCGGGAAAGGGGUCAACAGCCGUUCAGUACCAAGUCUCAGGGGAAACUUUGAGAUGGCCUUGCAAAGGGUAUGGUAAUAAGCUGACGGACAUGGUCCUAACCACGCAGCCAAGUCCUAAGUCAACAGAUCUUCUGUUGAUAUGGAUGCAGUUCACAGACUAAAUGUCGGUCGGGGAAGAUGUAUUCUUCUCAUAAGAUAUAGUCGGACCUCUCCUUAAUGGGAGCUAGCGGAUGAAGUGAUGCAACACUGGAGCCGCUGGGAACUAAUUUGUAUGCGAAAGUAUAUUGAUUAGUUUUGGAGUACUCGUGGUCG
Summary of the method: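 Colonies from six replicate transformations of E. coli BL21(DE3) were pooled and amplicon-sequenced on an Illumina HiSeq 2500. The library placed an intron with all eight P1ex-region nucleotides randomised inside the knt kanamycin-resistance gene on pET-22b(+), and cells grew overnight at 37°C or 30°C on LB agar with or without 25 μg/mL kanamycin (plus 100 μg/mL carbenicillin, 50 μM IPTG, 0.2% rhamnose). Fitness is the DiMSum error-weighted combination of wild-type-normalised replicate fold changes, kanamycin versus none.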

Sequence	self-splicing fitness (ln) (30 °C)	self-splicing fitness (ln) (37 °C)
GUGCAGCAAUAUUACGUGUC	-2.72 ± 0.16	-2.48 ± 0.25
GUGGAGCAAUAUUACGAAGU	-2.01 ± 0.28	-1.66 ± 0.39
GUGGAGCAAUAUUACGAAUU	–	-3.14 ± 0.47
GUGGAGCAAUAUUACGACAA	-1.83 ± 0.24	-1.38 ± 0.25
GUGGAGCAAUAUUACGACUC	-3.19 ± 0.45	-1.47 ± 0.44
GUGGAGCAAUAUUACGAGGA	-3.96 ± 0.31	-1.75 ± 0.19
GUGGAGCAAUAUUACGAGGC	–	-1.03 ± 0.5
GUGGAGCAAUAUUACGAUGC	-1.96 ± 0.15	-1.03 ± 0.16
GUGGAGCAAUAUUACGAUGU	-2.4 ± 0.23	-0.928 ± 0.29
GUGGAGCAAUAUUACGCACG	-2.63 ± 0.29	-2.32 ± 0.25
GUGGAGCAAUAUUACGCGCA	-1.48 ± 0.43	-1.47 ± 0.35
GUGGAGCAAUAUUACGGAAA	-1.87 ± 0.46	–
GUGGAGCAAUAUUACGGGAC	-2.17 ± 0.29	–
GUGGAGCAAUAUUACGGUGG	-3.76 ± 0.23	-2.5 ± 0.23
GUGGAGCAAUAUUACGGUGU	-2.5 ± 0.17	-1.78 ± 0.22
GUGGAGCAAUAUUACGGUUU	-3.22 ± 0.14	-1.65 ± 0.15
GUGGAGCAAUAUUACGUCGC	–	-1.71 ± 0.42
GUGGAGCAAUAUUACGUCUU	-2.36 ± 0.24	-2.36 ± 0.36
GUGGAGCAAUAUUACGUUCU	-4.21 ± 0.26	-2.38 ± 0.18
GUGUAGCAAUAUUACGAGAU	-2.83 ± 0.26	-1.23 ± 0.22
GUGUAGCAAUAUUACGAUGC	-1.85 ± 0.16	-0.552 ± 0.18
GUGUAGCAAUAUUACGCGCG	-2.48 ± 0.36	-2.62 ± 0.38
GUGUAGCAAUAUUACGCGUA	-1.82 ± 0.26	-0.729 ± 0.17
GUGUAGCAAUAUUACGCUGA	-1.22 ± 0.18	-1.58 ± 0.17
GUGUAGCAAUAUUACGGCGU	-1.42 ± 0.11	-1.04 ± 0.12

Sequence	self-splicing fitness (ln) (30 °C)	self-splicing fitness (ln) (37 °C)
GUGUAGCAAUAUUACGGGAU	-2.93 ± 0.17	-2.18 ± 0.2
GUGUAGCAAUAUUACGGGCC	-1.6 ± 0.23	-1.85 ± 0.48
GUGUAGCAAUAUUACGGGUA	-2.39 ± 0.2	-2.42 ± 0.16
GUGUAGCAAUAUUACGUGAC	-1.35 ± 0.11	-1.29 ± 0.19
GUGUAGCAAUAUUACGUGGC	-1.72 ± 0.18	–
GUUAAGCAAUAUUACGAACA	-2.16 ± 0.29	-1.32 ± 0.21
GUUAAGCAAUAUUACGACGC	-1.05 ± 0.24	-0.36 ± 0.21
GUUAAGCAAUAUUACGAGCA	-1.9 ± 0.12	-0.552 ± 0.11
GUUAAGCAAUAUUACGAGCU	-1.76 ± 0.13	-1.08 ± 0.15
GUUAAGCAAUAUUACGAGGA	-1.5 ± 0.23	-1.15 ± 0.39
GUUAAGCAAUAUUACGAGUC	-3.05 ± 0.12	-1.86 ± 0.15
GUUAAGCAAUAUUACGAUGU	-1.16 ± 0.088	0.226 ± 0.13
GUUAAGCAAUAUUACGAUUA	-1.04 ± 0.13	-0.324 ± 0.11
GUUAAGCAAUAUUACGAUUU	-0.759 ± 0.09	-0.00651 ± 0.14
GUUAAGCAAUAUUACGCAAG	-1.84 ± 0.18	-1.71 ± 0.23
GUUAAGCAAUAUUACGCAUG	-1.11 ± 0.083	-0.624 ± 0.11
GUUAAGCAAUAUUACGCAUU	-2.16 ± 0.18	-1.1 ± 0.16
GUUAAGCAAUAUUACGCCCG	-0.342 ± 0.39	-1.05 ± 0.45
GUUAAGCAAUAUUACGCGCC	-2.44 ± 0.2	-1.56 ± 0.16
GUUAAGCAAUAUUACGCGCU	-2 ± 0.16	-1.63 ± 0.2
GUUAAGCAAUAUUACGCGGG	-2.2 ± 0.12	-1.69 ± 0.16
GUUAAGCAAUAUUACGGAAG	-3.2 ± 0.19	-1.6 ± 0.2
GUUAAGCAAUAUUACGGCGG	-2.8 ± 0.21	-2.29 ± 0.33
GUUAAGCAAUAUUACGUAUC	-1.79 ± 0.1	-1.46 ± 0.14
GUUAAGCAAUAUUACGUAUU	-3.27 ± 0.19	-0.277 ± 0.16

Sequence	self-splicing fitness (ln) (30 °C)	self-splicing fitness (ln) (37 °C)
GUUAAGCAAUAUUACGUCGA	-1.79 ± 0.11	-1.02 ± 0.11
GUUAAGCAAUAUUACGUGAU	-1.94 ± 0.067	-1.44 ± 0.082
GUUAAGCAAUAUUACGUGCC	-1.39 ± 0.25	-0.253 ± 0.36
GUUAAGCAAUAUUACGUGCG	-0.344 ± 0.12	-1.15 ± 0.12
GUUAAGCAAUAUUACGUGGA	-2.84 ± 0.15	-2.31 ± 0.15
GUUAAGCAAUAUUACGUGGG	-2.87 ± 0.13	-2.65 ± 0.17
GUUAAGCAAUAUUACGUGUC	-2.09 ± 0.089	-0.788 ± 0.11
GUUAAGCAAUAUUACGUUCU	-1.03 ± 0.085	-0.445 ± 0.091
GUUAAGCAAUAUUACGUUGG	-2.45 ± 0.14	-1.19 ± 0.15
GUUCAGCAAUAUUACGAACU	-3.89 ± 0.14	-2.56 ± 0.16
GUUCAGCAAUAUUACGACCU	0.353 ± 0.16	0.115 ± 0.17
GUUCAGCAAUAUUACGACUU	-0.0631 ± 0.073	-0.409 ± 0.079
GUUCAGCAAUAUUACGAGCA	–	-1.75 ± 0.3
GUUCAGCAAUAUUACGAUAC	-0.948 ± 0.078	-0.47 ± 0.13
GUUCAGCAAUAUUACGAUCU	-0.337 ± 0.095	0.0505 ± 0.12
GUUCAGCAAUAUUACGCCCU	-0.106 ± 0.16	0.232 ± 0.19
GUUCAGCAAUAUUACGCUGC	–	-1.76 ± 0.4
GUUCAGCAAUAUUACGGAAG	-0.667 ± 0.088	0.566 ± 0.12
GUUCAGCAAUAUUACGGCAG	-2.82 ± 0.28	-1.82 ± 0.31
GUUCAGCAAUAUUACGGUAG	-2.08 ± 0.078	-0.531 ± 0.093
GUUCAGCAAUAUUACGGUGG	-2.39 ± 0.18	-1.96 ± 0.19
GUUCAGCAAUAUUACGUAAG	-0.609 ± 0.061	0.5 ± 0.083
GUUCAGCAAUAUUACGUAAU	0.434 ± 0.088	0.484 ± 0.098
GUUCAGCAAUAUUACGUACU	-1.24 ± 0.1	0.162 ± 0.13
GUUCAGCAAUAUUACGUCCU	-0.606 ± 0.14	0.279 ± 0.17

Sequence	self-splicing fitness (ln) (30 °C)	self-splicing fitness (ln) (37 °C)
GUUCAGCAAUAUUACGUGAG	-0.139 ± 0.044	-0.408 ± 0.062
GUUCAGCAAUAUUACGUUAA	-1.02 ± 0.11	-0.264 ± 0.12
GUUGAGCAAUAUUACGAAAC	-1.97 ± 0.37	–
GUUGAGCAAUAUUACGAAAU	-3.35 ± 0.44	-0.897 ± 0.27
GUUGAGCAAUAUUACGAACA	-2.67 ± 0.4	-1.69 ± 0.32
GUUGAGCAAUAUUACGAAUG	–	-1.68 ± 0.44
GUUGAGCAAUAUUACGAUAG	–	-3.04 ± 0.31
GUUGAGCAAUAUUACGAUCA	-2.74 ± 0.37	0.523 ± 0.28
GUUGAGCAAUAUUACGAUCU	-0.691 ± 0.093	-1.12 ± 0.11
GUUGAGCAAUAUUACGCAGU	–	-1.25 ± 0.4
GUUGAGCAAUAUUACGCGGA	–	-0.744 ± 0.35
GUUGAGCAAUAUUACGCGUU	-4.25 ± 0.46	-2.15 ± 0.28
GUUGAGCAAUAUUACGGAUU	-2.6 ± 0.34	-1.56 ± 0.21
GUUGAGCAAUAUUACGGCAA	-1.78 ± 0.42	-0.283 ± 0.48
GUUGAGCAAUAUUACGGGAA	-3.4 ± 0.23	-2.39 ± 0.23
GUUGAGCAAUAUUACGUAAU	-1.76 ± 0.093	-0.913 ± 0.12
GUUGAGCAAUAUUACGUAUA	-2.17 ± 0.29	–
GUUGAGCAAUAUUACGUCCA	-2.21 ± 0.34	–
GUUGAGCAAUAUUACGUCGG	-3.61 ± 0.39	-1.61 ± 0.27
GUUGAGCAAUAUUACGUGAU	-2.14 ± 0.19	-1.6 ± 0.27
GUUGAGCAAUAUUACGUGUA	-3 ± 0.21	–
GUUGAGCAAUAUUACGUUCU	-1.82 ± 0.14	-1.2 ± 0.13
GUUGAGCAAUAUUACGUUUC	-2.09 ± 0.2	-3.1 ± 0.34
GUUUAGCAAUAUUACGAGAC	-3.35 ± 0.49	-2.08 ± 0.32
GUUUAGCAAUAUUACGAGCC	-3.21 ± 0.21	-1.56 ± 0.2
